Data as given in patent US20130330324A1 (Novartis, published 2013).

Key:
[1] = target: T1, HER3 K267A (CD33-[Human HER3, residues 20-640, K267A]-TAG) (human, UniProt P21860 20-640); assay: ELISA titration, mutant HER3-Tag coated, antibody titrated, OD450
T1 construct: CD33 leader left out as signal; also called HER3 K267A-Tag; not shown: C-terminal TAG

[2] = target: T2, HER3 L268A (CD33-[Human HER3, residues 20-640, L268A]-TAG) (human, UniProt P21860 20-640); assay: as above
T2 construct: CD33 leader left out as signal; also called HER3 L268A-Tag; not shown: C-terminal TAG

[3] = target: T3, Rat HER3 (CD33-[Rat HER3, residues 20-643]-TAG) (rat, UniProt Q62799 20-643); assay: solution equilibrium titration (SET), IgG
T3 construct: range 20-643; CD33 leader left out as signal; also called ra HER3-Tag; not shown: C-terminal TAG (e.g. FLAG TAG)

[4] = target: T4, Hu HER3 (CD33-[Human HER3, residues 20-640]-TAG) (human, UniProt P21860 20-640); assay: solution equilibrium titration (SET), IgG
T4 construct: N-terminal CD33 leader is a secretion signal and is left out; also called hu HER3-Tag; HER3-Tag; not shown: C-terminal TAG (e.g. FLAG TAG)

[5] = target: T5, Cyno HER3 (CD33-[Cyno HER3, residues 20-643]-TAG) (cynomolgus, UniProt G7PIG5 20-643); assay: solution equilibrium titration (SET), IgG
T5 construct: range 20-643; CD33 leader left out as signal; also called cy HER3-Tag; not shown: C-terminal TAG (e.g. FLAG TAG)

[6] = target: T6, Mu HER3 (CD33-[Murine HER3, residues 20-643]-TAG) (mouse, UniProt Q61526 20-643); assay: solution equilibrium titration (SET), IgG
T6 construct: range 20-643; CD33 leader left out as signal; also called mu HER3-Tag; not shown: C-terminal TAG (e.g. FLAG TAG)

[7] = target: T4, Hu HER3 (CD33-[Human HER3, residues …); assay: ELISA titration, wild-type HER3-Tag coated, antibody titrated, OD450
[8] = target: T7, Human HER3, endogenous, on human cancer cell lines (human, UniProt P21860 20-1342); assay: FACS titration on SK-Br-3 cells
T7 construct: Endogenous antigen on SK-Br-3, MCF7 or BT-474 cells; also called HER3 on SK-Br-3 cells; HER3 on MCF7 cells

[9] = target: T7, Human HER3, endogenous, on human cancer …; assay: cell-based or functional assay
[10] = target: T7, Human HER3, endogenous, on human cancer …; assay: cell-based or functional assay; remark: listed apart in the source
[11] = target: T7, Human HER3, endogenous, on human cancer …; assay: cell-based or functional assay; remark: listed apart in the source

binding result [1]: no binding | binding result [2]: no binding | Kd [3]: 0.04 nM | Kd [4]: 0.026 nM | Kd [5]: 0.023 nM | Kd [6]: 0.02 nM | EC50 (read off the curve) [7]: ~0.3 nM | EC50 [8]: 2.45 nM | MCF7 pHER3 % inhibition [9]: 80% | MCF7 pHER3 IC50 [9]: 333 pM | SK-Br-3 pHER3 % inhibition [9]: 69% | SK-Br-3 pHER3 IC50 [9]: 167 pM | BT-474 pAkt (S473) % inhibition [10]: 62% | MCF7 pAkt (S473) IC50 [10]: 449 pM | SK-Br-3 pAkt (S473) % inhibition [10]: 89% | SK-Br-3 pAkt (S473) IC50 [10]: 70 pM | BT-474 proliferation % inhibition at 10 µg/ml IgG [11]: 41.6% | MCF7 (neuregulin stimulated) proliferation % inhibition at 10 µg/ml IgG [11]: 81% | SK-Br-3 proliferation % inhibition at 10 µg/ml IgG [11]: 35%
B1: MOR10703 (antibody, human IgG1, kappa, V domains shown)
VH: EVQLLESGGGLVQPGGSLRLSCAASGFTFSSYAMSWVRQAPGKGLEWVSAINSQGKSTYYADSVKGRFTISRDNSKNTLYLQMNSLRAEDTAVYYCARWGDEGFDIWGQGTLVTVSS
VL: DIQMTQSPSSLSASVGDRVTITCRASQGISNWLAWYQQKPGKAPKLLIYGASSLQSGVPSRFSGSGSGTDFTLTISSLQPEDFATYYCQQYSSFPTTFGQGTKVEIKR
notes: tested as IgG
